Here are results for one molecule from patent US20220403048A1, “BINDING MOLECULES TO ARGINASE II [ARG2]” (Cancer Research Technology Limited, priority 2019, published 2022).

Assay [1] concerns the target T1, monomeric ARG2 (Homo sapiens, UniProt P78540, E275Q).
T1 construct: human ARG2 (aa23-354); His10 (C); made in house; host or cells: E. coli
T1 sequence (P78540 23-354 E275Q): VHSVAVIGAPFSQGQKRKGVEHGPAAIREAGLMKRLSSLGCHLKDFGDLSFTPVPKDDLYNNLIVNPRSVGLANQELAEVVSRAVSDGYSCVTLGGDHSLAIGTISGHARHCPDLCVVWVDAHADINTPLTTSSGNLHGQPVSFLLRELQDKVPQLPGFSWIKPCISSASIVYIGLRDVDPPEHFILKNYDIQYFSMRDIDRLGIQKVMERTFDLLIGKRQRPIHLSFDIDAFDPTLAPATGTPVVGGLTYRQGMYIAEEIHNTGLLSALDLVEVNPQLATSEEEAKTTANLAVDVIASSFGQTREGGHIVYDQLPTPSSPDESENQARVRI
Put plainly: Human monomeric ARG2 enzyme inhibition assay. The following applies: purified recombinant human IgG1, FIG. 5. It is filed as biochemical. The procedure:
ARG2 specific recombinant IgG1 were screened for their ability to inhibit enzymatic activity of monomeric ARG2. In this assay, the ability of ARG2 specific recombinant IgG1 to inhibit the enzymatic activity of monomeric ARG2 was determined by measuring the production of urea, the product of L-arginine turnover by monomeric ARG2.
IC50 values were determined by testing a dilution series of the ARG2 specific recombinant IgG1, prepared in TBS.
10 μl of ARG2 specific recombinant IgG1 (dilution series) were added to a Greiner Bio-One® 384 well assay plate (Greiner Bio-one, UK; cat: 781901). […]
Urea was detected by the simultaneous addition of equal volumes of O-Phthaldialdehyde (1.5 mM O-Phthaldialdehyde, 7% H2SO4, 0.03% Brij L23) and N-(1-Napthyl)ethylenediamine (1.66 mM N-(1-Napthyl)ethylenediamine, 81 mM Boric acid, 21% H2SO4, 0.03% Brij L23) followed by an 18 minute incubation at room temperature before the colorimetric product was quantified on the Pherastar by measuring absorbance at 505 nm.
ARG2 specific recombinant IgG1 were tested alongside N-Hydroxyl-L-Arginine (a small molecule competitive inhibitor of ARG2) as a positive control and NIP228 (irrelevant isotype control antibody) as a negative control. Data points were plotted and IC50 values determined using a four parameter fit in GraphPad Prism (FIG. 5).

Assay [2] has as its target T2, recombinant human trimeric ARG2 enzyme (Homo sapiens, UniProt P78540, E275H/R327K).
T2 construct: His10 (after a GGG linker) (C); made in house; host or cells: E. coli BL21 (DE3)
T2 sequence (P78540 with tags, fused parts or gaps E275H/R327K): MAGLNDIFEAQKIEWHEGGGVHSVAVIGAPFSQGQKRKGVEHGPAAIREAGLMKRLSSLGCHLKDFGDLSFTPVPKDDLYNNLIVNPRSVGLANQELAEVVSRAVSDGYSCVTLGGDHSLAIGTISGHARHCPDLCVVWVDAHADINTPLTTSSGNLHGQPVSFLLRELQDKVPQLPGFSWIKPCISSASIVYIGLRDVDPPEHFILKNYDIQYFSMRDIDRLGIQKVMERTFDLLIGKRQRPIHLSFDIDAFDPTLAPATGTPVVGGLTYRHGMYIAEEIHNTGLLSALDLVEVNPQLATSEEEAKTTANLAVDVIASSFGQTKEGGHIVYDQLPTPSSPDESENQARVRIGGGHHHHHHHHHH
Put plainly: Direct binding HTRF assay, human trimeric ARG2. The following applies: purified scFv, FIG. 1A. The procedure: Unpurified scFv from periplasmic preparations were screened in a homogeneous time-resolved fluorescence (HTRF™, CisBio Bioassays, France) binding assay using a Pherastar plate reader (BMG Labtech, Germany). In this assay, binding of unpurified scFv to recombinant human trimeric ARG2 enzyme was assessed by measuring the fluorescence resonance energy transfer (FRET) between the c-myc tagged scFv and the biotinylated enzyme using streptavidin cryptate and anti-c-myc-XL665 detection reagents (CisBio International, France; cat: 610SAKLB and 61 MYCXLB respectively). […] Assay plates were incubated overnight at 4° C. prior to reading time resolved fluorescence on a Pherastar plate reader ([…]) using an excitation wavelength of 320 nm and measuring the emission at 620 nm and 665 nm (100 flashes).
Data were analysed by calculating % Delta F values for each sample. % Delta F was determined according to equation 1.
The scFv with unique protein sequences were expressed in E. coli and purified by affinity chromatography (essentially as described (Bannister et al., 2006)). The ARG2 binding profile of each purified scFv was determined by testing a dilution series of the purified scFv in the HTRF™ assay described in section 1.4, substituting the unpurified scFv periplasmic preparation with the purified scFv. […] Data were analysed by calculating the % Delta F values as described in section 1.4. […]

B1: C0020065: anti-ARG2 antibody, alternate lead isolation clone, VH SEQ ID NO: 2, VL SEQ ID NO: 7 (antibody, listed as Homo sapiens, V domains shown)
VH: GVNLRESGGGVVQPGRSLRLSCAASGFTFSSYAMHWVRQAPGKGLEWVAVISYDGSNKYYVDSVKGRFTISRDNSKNTLYLQMNSLRAEDTAVYYCARDSSQLWFDYWGRGTLVTVSS
VL: QSVVTQPPSVSGAPGQRVTISCTGSSSNIGTGYDVHWYQQLPGTAPKLLIYGNSNRPSGVPDRFSGSKSGTSASLAITGLQAEDEADYYCQSYDSSLSGSVVFGGGTQLTVL
modifications: C0020065
For the molecule B1, the “inhibition of the activity of human monomeric ARG2” value in assay [1] was “inhibited”. The “binding to biotinylated recombinant human trimeric ARG2 enzyme” value in assay [2] was “bound”.
